Residue numbers refer to the chain shown, from its start. In names and notes the source's numbering stands.
T1: human CLDN1 (human, UniProt O95832 1-211)
T1 construct: whole, on cells; also called hCLDN1
T1 sequence (looked up): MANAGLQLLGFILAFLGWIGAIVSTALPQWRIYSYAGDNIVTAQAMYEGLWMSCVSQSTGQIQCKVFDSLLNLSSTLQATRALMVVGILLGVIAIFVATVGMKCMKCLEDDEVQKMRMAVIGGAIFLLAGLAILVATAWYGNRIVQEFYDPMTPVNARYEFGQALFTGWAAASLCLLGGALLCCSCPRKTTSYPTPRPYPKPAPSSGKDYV

T2: human CLDN3 (human, UniProt O15551 1-220)
T2 construct: whole, on cells; also called hCLDN3
T2 sequence (looked up): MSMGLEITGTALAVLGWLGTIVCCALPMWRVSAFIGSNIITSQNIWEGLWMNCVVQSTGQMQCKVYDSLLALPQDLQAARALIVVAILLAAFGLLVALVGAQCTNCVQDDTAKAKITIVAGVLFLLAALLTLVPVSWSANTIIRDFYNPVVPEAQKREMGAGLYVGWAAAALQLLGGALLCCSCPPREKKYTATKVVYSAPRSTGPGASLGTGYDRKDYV

T3: human CLDN6 (human, UniProt P56747 1-220)
T3 construct: whole, on cells; also called hCLDN6
T3 sequence (looked up): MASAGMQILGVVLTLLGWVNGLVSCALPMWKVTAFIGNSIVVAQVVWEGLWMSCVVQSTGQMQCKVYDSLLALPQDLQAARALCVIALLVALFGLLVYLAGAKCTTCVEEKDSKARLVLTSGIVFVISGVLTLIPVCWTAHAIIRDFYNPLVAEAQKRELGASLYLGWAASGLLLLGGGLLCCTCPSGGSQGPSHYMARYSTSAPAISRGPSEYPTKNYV

B1: PR006292 (bispecific antibody, human IgG1, lambda)
chain: EVQLVESGGGLVQPGGSLRLSCAASGFTFSSYWMHWVRQVPGKGLVWVSRISSDASRTIYADSVKGRFTISRDNAKNTLYLQMNSLRAEDTAVYYCARGEDHDILTGYPIRGQGTTVTVSSGGGGSGGGGSGGGGSEVQLVESGGGLVQPGGSLRLSCAASGFTFSSYWMHWVRQVPGKGLVWVSRISSDASRTIYADSVKGRFTISRDNAKNTLYLQMNSLRAEDTAVYYCARGEDHDILTGYPIRGQGTTVTVSSASEPKSSDKTHTCPPCPAPEAAGAPSVFLFPPKPKDTLMISRTPEVTCVVVDVSHEDPEVKFNWYVDGVEVHNAKTKPREEQYNSTYRVVSVLTVLHQDWLNGKEYKCKVSNKALPAPIEKTISKAKGQPREPQVCTLPPSREEMTKNQVSLSCAVKGFYPSDIAVEWESNGQPENNYKTTPPVLDSDGSFFLVSKLTVDKSRWQQGNVFSCSVMHEALHNHYTQKSLSLSPGK
heavy: EVQLVESGGGLVQPGGSLKLSCAASGFTFSTYAMNWVRQASGKGLEWVGRIRSKYNNYATYYADSVKDRFTISRDDSKNTAYLQMNSLKTEDTAVYYCTRHGNFGNSYVSWFAYWGQGTLVTVSSASTKGPSVFPLAPSSKSTSGGTAALGCLVKDYFPEPVTVSWNSGALTSGVHTFPAVLQSSGLYSLSSVVTVPSSSLGTQTYICNVNHKPSNTKVDKKVEPKSCDKTHTCPPCPAPEAAGAPSVFLFPPKPKDTLMISRTPEVTCVVVDVSHEDPEVKFNWYVDGVEVHNAKTKPREEQYNSTYRVVSVLTVLHQDWLNGKEYKCKVSNKALPAPIEKTISKAKGQPREPQVYTLPPCREEMTKNQVSLWCLVKGFYPSDIAVEWESNGQPENNYKTTPPVLDSDGSFFLYSKLTVDKSRWQQGNVFSCSVMHEALHNHYTQKSLSLSPGK
light: QAVVTQEPSLTVSPGGTVTLTCRSSTGAVTTSNYANWVQQKPGQAPRGLIGGTNKRAPWTPARFSGSLLGDKAALTLLGAQPEDEAEYFCALWYSNLWVFGGGTKLTVLGQPKAAPSVTLFPPSSEELQANKATLVCLISDFYPGAVTVAWKADSSPVKAGVETTTPSKQSNNKYAASSYLSLTPEQWKSHRSYSCQVTHEGSTVEKTVAPTECS
notes: structure 1; CD3 Fab from PR003886, CLDN18.2 VH from PR007245; IgG1 knob/hole, AAA (L234A, L235A, G237A)
B2: PR006384 (bispecific antibody, human IgG1, lambda)
chain: B1 chain with D54T, A55G, D190T, A191G
heavy: B1 heavy
light: B1 light
notes: structure 1; CD3 Fab from PR003886, CLDN18.2 VH from PR007246; AAA

How the values were obtained:
human CLDN18.2 [1] = target: human CLDN18.2 (human); test: cell-based or functional assay
[2] = target: CLDN18.2 of SNU620 cells (methionine to leucine at amino acid 149) (human, UniProt P56856-2 1-261); test: cell-based or functional assay
human CLDN18.2 [3] = target: human CLDN18.2 (human); test: cell-based or functional assay; remark: listed apart in the source
human CLDN1 = target: T1, human CLDN1; test: FACS on HEK293 cells transiently expressing human CLDN1
Method: (§1) Antibodies were assayed for binding affinity to human CLDN18.2 paralogous proteins by FACS (ACEA NovoCyte). CLDN1, CLDN2, CLDN3, CLDN4, CLDN6 and CLDN9 genes of the human CLDN18.2 paralogous family were transiently transfected into HEK293 cells. […] The cell density was adjusted to 10⁶ cells/mL, and 50 μL of the cell suspension was added to each well of a 96-well plate. An antibody was diluted to 60 nM with FACS buffer, and 50 μL of the antibody dilution was added to each well of the 96-well plate. After 2 h of incubation at 4° C., the plate was washed twice with FACS buffer. Then, an FACS buffer containing a secondary antibody was added. After 1 h of incubation at 4° C., the plate was washed twice with FACS buffer. The cells were resuspended in fixative solution, and run FACS.

human CLDN3 = target: T2, human CLDN3; test: FACS on HEK293 cells transiently expressing human CLDN3
Method: as §1

human CLDN6 = target: T3, human CLDN6; test: FACS on HEK293 cells transiently expressing human CLDN6
Method: as §1

human CLDN18.2 [4] = target: T4, human CLDN18.2 (human); test: competition FACS on HEK293/hCLDN18.2 cells; competitor 200 nM biotinylated PR004549
T4 construct: the HEK293 line was made with a GenScript plasmid; also called hCLDN18.2
Method: This example is to study the binding of anti-human CLDN18.2 bispecific antibodies to the epitope region of a human CLDN18.2 antigen. Competitive binding experiments were performed at the cellular level using human CLDN18.2-overexpressing HEK293/hCLDN18.2 cells. […] The mixture was well mixed and incubated at 4° C. for 30 min. 25 μL of the corresponding serially diluted non-biotinylated anti-human CLDN18.2 antibody was added. The mixture was well mixed and incubated at 4° C. for 1 h. The cells in each well were washed twice with 200 μL of pre-cooled FACS buffer (2% BSA in DPBS) and centrifuged at 500 g at 4° C. for 5 min, and then the supernatant was discarded. A fluorescent secondary antibody (Jackson ImmunoResearch, 016-540-084, 1:500) was added. The mixture was incubated at 4° C. in the absence of light for 1 h. The cells in each well were washed twice with 200 μL of pre-cooled FACS buffer (2% BSA in DPBS) and centrifuged at 500 g at 4° C. for 5 min, and then the supernatant was discarded. Finally, the cells in each well were resuspended in 200 μL of pre-cooled FACS buffer, and the fluorescence signal values were read using a ACEA_NovoCyte.

Sequence of CLDN18.2 of SNU620 cells (methionine to leucine at amino acid 149) (P56856 other isoform, or with tags, fused parts or gaps limits assumed): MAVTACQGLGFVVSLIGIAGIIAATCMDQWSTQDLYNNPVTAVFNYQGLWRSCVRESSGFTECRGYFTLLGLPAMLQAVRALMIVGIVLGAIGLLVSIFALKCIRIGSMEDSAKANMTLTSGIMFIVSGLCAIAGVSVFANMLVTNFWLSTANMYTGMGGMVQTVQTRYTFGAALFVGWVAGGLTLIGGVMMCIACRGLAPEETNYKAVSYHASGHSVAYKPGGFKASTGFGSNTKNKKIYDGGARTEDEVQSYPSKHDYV

| Binder | TDCC, Titer EC50 (pM), NUGC4_D8 (human CLDN18.2 [1]) [pM] | TDCC, Titer EC50 (pM), SNU620 [2] [pM] | CDC, EC50 (nM), HEK293/hCLDN18.2 (human CLDN18.2 [3]) [nM] | binding result (human CLDN1) | binding result (human CLDN3) | binding result (human CLDN6) | IC50 (human CLDN18.2 [4]) [nM] | Maximum inhibition rate (%) (human CLDN18.2 [4]) | TDCC, Titer EC50 (pM), IM95 (human CLDN18.2 [1]) [pM] |
| --- | --- | --- | --- | --- | --- | --- | --- | --- | --- |
| B1 | 185 | 113 | 37.1 | no binding | no binding | no binding | 70.8 | 48.1 |  |
| B2 | 57.9 | 57.1 |  | no binding | no binding | no binding | 56.7 | 48.5 | 938 |

— patent US20250340631A1 (HARBOUR BIOMED SHANGHAI, published 2025)
